Consider three molecules from patent US20220119534A1 (DRAGONFLY THERAPEUTICS, published 2022).

Positions count from the first letter of the chain named. In names and notes the source's numbering stands. Several values for one entry are separate records, joined by “and”; a condition that tells them apart may be missing. Equal values may be shown once.

Test [1] has as its target T1, mFc-hNKG2D (human, UniProt P26718 73-216).
T1 construct: extracellular domain; Made in house (Dragonfly Tx); the order of tag and ECD follows the name mFc-hNKG2D; also called mFc-tagged human NKG2D; not shown: mouse Fc tag
T1 sequence (looked up): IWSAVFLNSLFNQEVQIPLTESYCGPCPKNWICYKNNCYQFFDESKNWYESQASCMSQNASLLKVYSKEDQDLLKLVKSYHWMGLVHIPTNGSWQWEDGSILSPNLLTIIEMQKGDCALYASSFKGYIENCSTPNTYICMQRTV
In words: SPR Biacore 8K 37 C; mFc-hNKG2D captured on anti-mFc chip, TriNKET as analyte; 1:1 kinetic fit; control, n=3. In general terms: Surface plasmon resonance follows binding to a sensor surface in real time, without labels.

Test [2] addresses T2, Human CLEC12A-His (human, UniProt Q5QGZ9 65-265).
T2 construct: Recombinant soluble protein made in house; also called hCLEC12A-His; hCLEC12A; not shown: His tag
T2 sequence: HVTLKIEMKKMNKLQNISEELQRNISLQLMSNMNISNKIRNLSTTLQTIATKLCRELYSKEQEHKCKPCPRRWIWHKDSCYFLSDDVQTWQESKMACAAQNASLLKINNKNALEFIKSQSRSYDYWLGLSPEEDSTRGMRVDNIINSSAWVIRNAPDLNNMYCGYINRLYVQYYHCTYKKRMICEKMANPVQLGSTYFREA
In words: SPR, 37 C, AB0192 captured, hCLEC12A-His analyte.

Test [3] has as its target T3, human CLEC12A on cells (HL60, PL21, Ba/F3-hCLEC12A) (human, UniProt Q5QGZ9 1-265).
T3 construct: Endogenous on the AML lines HL60 and PL21; brought into mouse Ba/F3 cells by retroviral transduction; The cell line stands under assay; also called CLL-1
T3 sequence: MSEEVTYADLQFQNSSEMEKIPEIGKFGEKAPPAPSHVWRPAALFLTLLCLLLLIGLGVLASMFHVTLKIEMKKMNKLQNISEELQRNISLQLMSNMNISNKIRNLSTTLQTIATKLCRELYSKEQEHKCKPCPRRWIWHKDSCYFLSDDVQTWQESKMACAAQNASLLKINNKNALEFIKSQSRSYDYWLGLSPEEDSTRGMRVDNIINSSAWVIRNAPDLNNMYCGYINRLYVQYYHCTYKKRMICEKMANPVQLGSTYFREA
Put plainly: flow cytometry, 40 nM, MFI after 2 h 37 C relative to 2 h on ice, PL21 cells. In general terms: A flow cytometer gives signals particle by particle.

For test [4], the target named is T4, Human CLEC12A-His (recombinant, K244 WT) (human, UniProt Q5QGZ9 65-265).
T4 construct: Made in house (Dragonfly Tx); also called hCLEC12A; hCLEC12A-His; not shown: His tag
T4 sequence: T2 sequence
In words: SPR, two-state fit (ka1).

Test [5] deals with T5, Human CLEC12A-K244Q-His (human, UniProt Q5QGZ9 65-265).
T5 construct: also called hCLEC12A (Q244); CLEC12A (Q244); not shown: His tag
T5 chain: T2 sequence with K180Q
In words: SPR, two-state fit (ka1).

Test [6] deals with T6, Human CD64 (FcγRI) (human, UniProt P12314 16-288, biotinylated).
T6 construct: Bought recombinant receptor; also called hFcγRI; Human FcγRI
T6 sequence (P12314 16-288 limits assumed): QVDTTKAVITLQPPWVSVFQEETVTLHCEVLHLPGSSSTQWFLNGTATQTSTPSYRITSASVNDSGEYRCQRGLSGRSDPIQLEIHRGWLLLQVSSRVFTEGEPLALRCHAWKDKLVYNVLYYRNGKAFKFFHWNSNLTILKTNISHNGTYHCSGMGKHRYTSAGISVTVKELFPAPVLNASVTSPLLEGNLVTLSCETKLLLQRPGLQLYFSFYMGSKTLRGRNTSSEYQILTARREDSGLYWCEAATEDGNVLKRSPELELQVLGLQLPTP
Put plainly: SPR, summary of FcγR affinities.

The target in test [7] is T7, Human CD32a H131 (FcγRIIa H131) (human, UniProt P12318 36-218, limits assumed, biotinylated).
T7 construct: Bought recombinant receptor; also called hFcγRIIa H131; FcgRIIa H131
T7 sequence (looked up): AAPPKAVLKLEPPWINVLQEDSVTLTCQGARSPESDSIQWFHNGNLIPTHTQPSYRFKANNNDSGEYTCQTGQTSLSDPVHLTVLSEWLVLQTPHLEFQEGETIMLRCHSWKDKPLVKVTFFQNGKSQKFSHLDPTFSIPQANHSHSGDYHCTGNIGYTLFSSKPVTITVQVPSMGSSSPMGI
In words: SPR, summary of FcγR affinities.

In test [8] the target is T8, Human CD32a R131 (FcγRIIa R131) (human, UniProt P12318 36-218, limits assumed, biotinylated).
T8 construct: Bought recombinant receptor; also called hFcγRIIa R131; FcgRIIa R131
T8 sequence (looked up): T7 sequence (looked up) with H132R
In words: SPR, summary of FcγR affinities.

Test [9] has as its target T9, Human CD32b (FcγRIIb) (human, UniProt P31994 46-217, limits assumed, biotinylated).
T9 construct: Bought recombinant receptor; also called hFcγRIIb; CD32b (FcγR2b)
T9 sequence (looked up): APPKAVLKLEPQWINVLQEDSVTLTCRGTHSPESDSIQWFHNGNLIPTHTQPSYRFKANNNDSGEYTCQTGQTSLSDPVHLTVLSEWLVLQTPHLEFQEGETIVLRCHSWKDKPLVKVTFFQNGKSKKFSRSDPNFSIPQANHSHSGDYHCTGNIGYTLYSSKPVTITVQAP
In words: SPR, summary of FcγR affinities.

Test [10] concerns the target T10, Human CD16a V158 (FcγRIIIa V158) (human, UniProt P08637 17-208, biotinylated).
T10 construct: Bought recombinant receptor; also called hCD16aV; hFcγRIIIa V158
Put plainly: SPR, summary of FcγR affinities.

Test [11] concerns the target T11, Human CD16a F158 (FcγRIIIa F158) (human, UniProt P08637 17-208, biotinylated).
T11 construct: Bought recombinant receptor; also called hFcγRIIIa F158
Put plainly: SPR, summary of FcγR affinities.

Test [12] deals with T10, Human CD16a V158 (FcγRIIIa V158). Put plainly: SPR 25C, biotinylated CD16a V158 captured.

T10 sequence (P08637 17-208 F176V limits assumed): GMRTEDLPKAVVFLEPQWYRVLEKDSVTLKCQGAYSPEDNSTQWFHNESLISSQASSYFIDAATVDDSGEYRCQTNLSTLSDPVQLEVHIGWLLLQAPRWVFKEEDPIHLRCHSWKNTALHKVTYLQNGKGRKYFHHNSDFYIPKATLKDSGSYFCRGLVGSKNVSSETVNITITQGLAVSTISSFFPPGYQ
T11 sequence (P08637 17-208 limits assumed): as the sequence (P08637 17-208 F176V limits assumed) above, with V160F counted along it

B1: F3'-1602 TriNKET (bispecific antibody, human IgG1, kappa)
chain: QLQLQESGPGLVKPSETLSLTCTVSGFSLTNYGLHWIRQPPGKCLEWIGVIWSGGKTDYNPSLKSRVTISKDTSKNQFSLKLSSVQAADTAVYYCAKYDYDDSLDYWGQGTLVTVSSGGGGSGGGGSGGGGSGGGGSDIQMTQSPSSLSASVGDRVTITCHASQNINFWLSWYQQKPGKAPKLLIYEASNLHTGVPSRFSGSGSGTRFTLTISSLQPEDIATYYCQQSHSYPLTFGCGTKLEIKGSDKTHTCPPCPAPELLGGPSVFLFPPKPKDTLMISRTPEVTCVVVDVSHEDPEVKFNWYVDGVEVHNAKTKPREEQYNSTYRVVSVLTVLHQDWLNGKEYKCKVSNKALPAPIEKTISKAKGQPREPRVYTLPPCRDELTKNQVSLTCLVKGFYPSDIAVEWESNGQPENNYKTTPPVLVSDGSFTLYSKLTVDKSRWQQGNVFSCSVMHEALHNHYTQKSLSLSPG
heavy: EVQLVESGGGLVKPGGSLRLSCAASGFTFSSYSMNWVRQAPGKGLEWVSSISSSSSYIYYADSVKGRFTISRDNAKNSLYLQMNSLRAEDTAVYYCARGAPIGAAAGWFDPWGQGTLVTVSSASTKGPSVFPLAPSSKSTSGGTAALGCLVKDYFPEPVTVSWNSGALTSGVHTFPAVLQSSGLYSLSSVVTVPSSSLGTQTYICNVNHKPSNTKVDKKVEPKSCDKTHTCPPCPAPELLGGPSVFLFPPKPKDTLMISRTPEVTCVVVDVSHEDPEVKFNWYVDGVEVHNAKTKPREEQYNSTYRVVSVLTVLHQDWLNGKEYKCKVSNKALPAPIEKTISKAKGQPREPQVCTLPPSRDELTENQVSLTCLVKGFYPSDIAVEWESNGQPENNYKTTPPVLDSDGSFFLYSWLTVDKSRWQQGNVFSCSVMHEALHNHYTQKSLSLSPG
light: DIQMTQSPSSVSASVGDRVTITCRASQGISSWLAWYQQKPGKAPKLLIYAASSLQSGVPSRFSGSGSGTDFTLTISSLQPEDFATYYCQQGVSFPRTFGGGTKVEIKRTVAAPSVFIFPPSDEQLKSGTASVVCLLNNFYPREAKVQWKVDNALQSGNSQESVTEQDSKDSTYSLSSTLTLSKADYEKHKVYACEVTHQGLSSPVTKSFNRGEC
notes: Trispecific F3' format: CLEC12A scFv-Fc paired with NKG2D Fab-Fc; Stressed and control samples of the stability studies are the same molecule; also called AB0237
B1: in test [1], the Kd came to 714 nM, the koff was found to be 0.146 s⁻¹ and the kon was 206000 M⁻¹ s⁻¹.

B2: AB0192 TriNKET (other)
chain: EVQLVESGGGVVQPGGSLRLSCAASGFTFNAFGMHWVRQAPGKCLEWVAFISSGSTSIYYANTVKGRFTISRDNSKNTLYLQMNSLRAEDTAVYYCARDGYPTGGAMDYWGQGTSVTVSSGGGGSGGGGSGGGGSGGGGSDIQMTQSPSSLSASVGDRVTITCKASQDIYNYLSWFQQKPGKAPKPLIYRANILVSGVPSRFSGSGSGQDYTFTISSLQPEDIATYYCLQFDAFPFTFGCGTKLEIKGSDKTHTCPPCPAPELLGGPSVFLFPPKPKDTLMISRTPEVTCVVVDVSHEDPEVKFNWYVDGVEVHNAKTKPREEQYNSTYRVVSVLTVLHQDWLNGKEYKCKVSNKALPAPIEKTISKAKGQPREPRVYTLPPCRDELTKNQVSLTCLVKGFYPSDIAVEWESNGQPENNYKTTPPVLVSDGSFTLYSKLTVDKSRWQQGNVFSCSVMHEALHNHYTQKSLSLSPG
heavy: B1 heavy
light: B1 light
notes: the condition stands under assay; also called AB0192 Lot AB0192-005
As for B2, in [2], the Kd is 1.72 nM and 1.99 nM and 1.71 nM; the koff was 0.00136 s⁻¹ and 0.00151 s⁻¹ and 0.00134 s⁻¹; the kon was 787000 M⁻¹ s⁻¹ and 757000 M⁻¹ s⁻¹ and 785000 M⁻¹ s⁻¹. Besides, in [3], the percent surface retention came out at 101%.

B3: AB0089 TriNKET (bispecific antibody, human IgG1, kappa)
chain: B1 chain with S53V, K56A, K71V, Y98G, D101G, S103T, R207D, I220F
heavy: B1 heavy
light: B1 light
notes: F3' format heterodimer of three chains; human IgG1 Fc with EW-RVT and Y349C/S354C mutations; also called AB0089 Lot AB0089-002; CLEC12A TriNKET AB0089
Turning to B3, the kon was 1.63e+07 M⁻¹ s⁻¹ in test [4]; 9.7e+06 M⁻¹ s⁻¹ in test [5]; 87600 M⁻¹ s⁻¹ and 77000 M⁻¹ s⁻¹ and 84600 M⁻¹ s⁻¹ in test [12]. The Kd in test [6] is 5.1 nM; in test [7], 900 nM; in [8], 1250 nM; in [9] it was 6.27 µM; in [10] it was 333 nM; in test [11] it was 1270 nM. The Kd in test [12] was 336 nM and 343 nM and 321 nM. Besides, in [12], the koff is 0.0294 s⁻¹ and 0.0264 s⁻¹ and 0.0272 s⁻¹.

As a reminder, the Kd is the concentration at which binding is half-saturated. A high value points to a looser complex. Broadly, the koff is the rate constant with which the complex falls apart. What is called kon is a measure of how fast the partners come together.
